# Data as given in paper PMC6623464, “HTLV-1 basic leucine zipper factor protects cells from oxidative stress by upregulating expression of Heme Oxygenase I”.
# B1: HMOX1 Distal 1 MARE probe (dsDNA)
# DNA 1: GTGTTTTTCCTGCTGAGTCACGGTCCCGAGGT
# DNA 2: ACCTCGGGACCGTGACTCAGCAGGAAAAACAC
# B2: HMOX1 proximal MARE probe (dsDNA)
# DNA 1: TGCTAGATTTTGCTGAGTCACCAGTGCCTCCT
# DNA 2: AGGAGGCACTGGTGACTCAGCAAAATCTAGCA
# B3: HMOX1 Distal 2 MARE probe (dsDNA)
# DNA 1: GATCTGTTTTCGCTGAGTCACGGTCCCGGTGT
# DNA 2: ACACCGGGACCGTGACTCAGCGAAAACAGATC
# B4: HMOX1 Distal 3 MARE probe (dsDNA)
# DNA 1: TGTCTGTTTTCGCTGAGTCACGGTCTAGAGAT
# DNA 2: ATCTCTAGACCGTGACTCAGCGAAAACAGACA
# B5: T-MARE probe (dsDNA)
# DNA 1: AGCTCGGAATTGCTGACTCAGCATTACTCTCG
# DNA 2: CGAGAGTAATGCTGAGTCAGCAATTCCGAGCT
# B6: MARE MT probe (dsDNA)
# DNA 1: AGCTCGGAATCAATGACTCATTGTTACTCTCG
# DNA 2: CGAGAGTAACAATGAGTCATTGATTCCGAGCT
# What was measured:
# MafG-His;T7-HBZ-bZIP [1] = molecular target: T1, MafG-His;T7-HBZ-bZIP (human?;HTLV-1, UniProt O15525;P0C746-2 1-162;120-206, |); assay: EMSA; increased over MafG alone; EMSA: 0.5x TM (100 mM Tris-HCl pH 7.5, 20 mM MgSO4 as printed), 1 mM DTT, 1 ug BSA, 100 ng poly(dA)-poly(dT), 2-10 fmol probe, 20 C, 1 h; proteins stored in 50; conditions: protein: recombinant;recombinant; tags: 6xHis (pRSET A);T7; copies: 1;1; label: 32P end label
# MafG-His [2] = molecular target: T2, MafG-His (UniProt O15525 1-162); assay: EMSA; MafG 0.5 nM; higher apparent affinity than distal MAREs; EMSA: 0.5x TM (100 mM Tris-HCl pH 7.5, 20 mM MgSO4 as printed), 1 mM DTT, 1 ug BSA, 100 ng poly(dA)-poly(dT), 2-10 fmol probe, 20 C, 1 h; proteins stored in 50; conditions: protein: recombinant; tags: 6xHis (pRSET A); chain copies: 2; label: 32P end label
# MafG-His;T7-HBZ-bZIP [3] = molecular target: T1, MafG-His;T7-HBZ-bZIP; assay: EMSA; HBZ-bZIP diminished the MafG complex; authors conclude heterodimer does not bind; EMSA: 0.5x TM (100 mM Tris-HCl pH 7.5, 20 mM MgSO4 as printed), 1 mM DTT, 1 ug BSA, 100 ng poly(dA)-poly(dT), 2-10 fmol probe, 20 C, 1 h; proteins stored in 50; conditions: protein: recombinant;recombinant; tags: 6xHis (pRSET A);T7; copies: 1;1; label: 32P end label
# MafG-His;T7-HBZ-bZIP [4] = molecular target: T1, MafG-His;T7-HBZ-bZIP; assay: EMSA; most pronounced increase over MafG alone; EMSA: 0.5x TM (100 mM Tris-HCl pH 7.5, 20 mM MgSO4 as printed), 1 mM DTT, 1 ug BSA, 100 ng poly(dA)-poly(dT), 2-10 fmol probe, 20 C, 1 h; proteins stored in 50; conditions: protein: recombinant;recombinant; tags: 6xHis (pRSET A);T7; copies: 1;1; label: 32P end label
# MafG-His [5] = molecular target: T2, MafG-His; assay: EMSA; MafG 0.5 or 1 nM; EMSA: 0.5x TM (100 mM Tris-HCl pH 7.5, 20 mM MgSO4 as printed), 1 mM DTT, 1 ug BSA, 100 ng poly(dA)-poly(dT), 2-10 fmol probe, 20 C, 1 h; proteins stored in 50; conditions: protein: recombinant; tags: 6xHis (pRSET A); chain copies: 2; label: 32P end label
# GST-HBZ-AD = GST-HBZ-AD (HTLV-1, UniProt P0C746-2 1-57); assay: EMSA; HBZ-AD 50 nM, no MafG; EMSA: 0.5x TM (100 mM Tris-HCl pH 7.5, 20 mM MgSO4 as printed), 1 mM DTT, 1 ug BSA, 100 ng poly(dA)-poly(dT), 2-10 fmol probe, 20 C, 1 h; proteins stored in 50; conditions: protein: recombinant; tags: GST; label: 32P end label
# MafG-His;T7-HBZ-bZIP [6] = molecular target: T1, MafG-His;T7-HBZ-bZIP; assay: EMSA; increased over MafG alone; MafG 0.5 nM; EMSA: 0.5x TM (100 mM Tris-HCl pH 7.5, 20 mM MgSO4 as printed), 1 mM DTT, 1 ug BSA, 100 ng poly(dA)-poly(dT), 2-10 fmol probe, 20 C, 1 h; proteins stored in 50; conditions: protein: recombinant;recombinant; tags: 6xHis (pRSET A);T7; copies: 1;1; label: 32P end label
# GST-HBZ = GST-HBZ (HTLV-1, UniProt P0C746-2 1-206); assay: EMSA; HBZ 50 nM, no MafG; EMSA: 0.5x TM (100 mM Tris-HCl pH 7.5, 20 mM MgSO4 as printed), 1 mM DTT, 1 ug BSA, 100 ng poly(dA)-poly(dT), 2-10 fmol probe, 20 C, 1 h; proteins stored in 50; conditions: protein: recombinant; tags: GST; chain copies: 2; label: 32P end label
# MafG-His [7] = molecular target: T2, MafG-His; assay: EMSA; EMSA: 0.5x TM (100 mM Tris-HCl pH 7.5, 20 mM MgSO4 as printed), 1 mM DTT, 1 ug BSA, 100 ng poly(dA)-poly(dT), 2-10 fmol probe, 20 C, 1 h; proteins stored in 50; conditions: protein: recombinant; tags: 6xHis (pRSET A); chain copies: 2; label: 32P end label
# GST-HBZ, sequence (P0C746 8-209, tags left off): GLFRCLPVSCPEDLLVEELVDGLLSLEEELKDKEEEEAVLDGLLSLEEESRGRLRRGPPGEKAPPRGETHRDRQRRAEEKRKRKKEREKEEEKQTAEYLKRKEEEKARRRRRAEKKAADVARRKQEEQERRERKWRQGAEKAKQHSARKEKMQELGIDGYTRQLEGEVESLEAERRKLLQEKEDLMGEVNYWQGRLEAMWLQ
# GST-HBZ-AD, sequence (P0C746 8-60, tags left off): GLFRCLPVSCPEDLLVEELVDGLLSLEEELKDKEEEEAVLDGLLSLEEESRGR
binder,measurement,setting,value
B1,binding result,MafG-His;T7-HBZ-bZIP [1],binds
B2,binding result,MafG-His [2],binds
same,binding result,MafG-His;T7-HBZ-bZIP [3],no binding
B3,binding result,MafG-His;T7-HBZ-bZIP [1],binds
B4,binding result,MafG-His;T7-HBZ-bZIP [4],binds
B5,binding result,MafG-His [5],binds
same,binding result,GST-HBZ-AD,no binding
same,binding result,MafG-His;T7-HBZ-bZIP [6],binds
same,binding result,GST-HBZ,no binding
B6,binding result,MafG-His [7],no binding
